Measurements from US20150141489.

Molecular target: endogenous p38α, Q16539
Sequence (Q16539 2-360): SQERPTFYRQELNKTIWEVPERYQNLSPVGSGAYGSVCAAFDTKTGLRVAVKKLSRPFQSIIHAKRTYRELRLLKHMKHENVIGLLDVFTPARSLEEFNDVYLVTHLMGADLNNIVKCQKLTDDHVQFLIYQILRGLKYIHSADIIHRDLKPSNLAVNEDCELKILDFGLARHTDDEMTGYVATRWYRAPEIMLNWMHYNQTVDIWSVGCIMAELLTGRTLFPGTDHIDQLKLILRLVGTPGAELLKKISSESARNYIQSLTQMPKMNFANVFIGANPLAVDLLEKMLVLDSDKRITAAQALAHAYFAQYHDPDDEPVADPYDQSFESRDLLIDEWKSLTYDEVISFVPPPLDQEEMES

Protein | p38-MAPK phosphorylation (Western blot) | p38 or MK2 phosphorylation (Western blot)
T7-tagged human Mnk2a (protein) MVQKKPAELQGFHRSFKGQNPFELAFSLDQPDHGDSDFGLQCSARPDMPASQPIDIPDAKKRGKKKKRGRATDSFSGRFEDVYQLQEDVLGEGAHARVQTCINLITSQEYAVKIIEKQPGHIRSRVFREVEMLYQCQGHRNVLELIEFFEEEDRFYLVFEKMRGGSILSHIHKRRHFNELEASVVVQDVASALDFLHNKGIAHRDLKPENILCEHPNQVSPVKICDFDLGSGIKLNGDCSPISTPELLTPCGSAEYMAPEVVEAFSEEASIYDKRCDLWSLGVILYILLSGYPPFVGRCGSDCGWDRGEACPACQNMLFESIQEGKYEFPDKDWAHISCAAKDLISKLLVRDAKQRLSAAQVLQHPWVQGCAPENTLPTPMVLQRNSCAKDLTSFAAEAIAMNRQLAQHDEDLAEEEAAGQGQPVLVRATSRCLQLSPPSQSKLAQRRQRASLSSAPVVLVGDHA | only cells expressing Mnk2a showed increased p38-MAPK phosphorylation, indicating that p38-MAPK is activated | –
Mnk2a-kinase dead (Mnk2aKD) (protein) MVQKKPAELQGFHRSFKGQNPFELAFSLDQPDHGDSDFGLQCSARPDMPASQPIDIPDAKKRGKKKKRGRATDSFSGRFEDVYQLQEDVLGEGAHARVQTCINLITSQEYAVAIIEKQPGHIRSRVFREVEMLYQCQGHRNVLELIEFFEEEDRFYLVFEKMRGGSILSHIHKRRHFNELEASVVVQDVASALDFLHNKGIAHRDLKPENILCEHPNQVSPVKICDFDLGSGIKLNGDCSPISTPELLTPCGSAEYMAPEVVEAFSEEASIYDKRCDLWSLGVILYILLSGYPPFVGRCGSDCGWDRGEACPACQNMLFESIQEGKYEFPDKDWAHISCAAKDLISKLLVRDAKQRLSAAQVLQHPWVQGCAPENTLPTPMVLQRNSCAKDLTSFAAEAIAMNRQLAQHDEDLAEEEAAGQGQPVLVRATSRCLQLSPPSQSKLAQRRQRASLSSAPVVLVGDHA | – | it did not cause activation of p38, as measured by p38 or MK2 phosphorylation
